Test results reported in article doi:10.1101/2020.09.02.280610.

Target: recombinant soluble canine IL-10 receptor alpha chain (extra-cytoplasmic domain of canine IL-10R1) (canine)
Assay: SPR

recombinant canine IL-10 (from UniProt P48411 20-181) (ligand)
EC80 (binding equilibrium constant): 51.4 nM
RU at 31.2 ng/mL: 211 RU
RU at 125 ng/mL (plateau): 1720 RU
